According to the Human Domainome abundance scans (Beltran et al. 2025):
± gives the uncertainty stated by the source.

B1: Far upstream element-binding protein 3, residues 75 to 150; numbered along this chain, Q96I24 (parent)
chain: RTVITEEFKVPDKMVGFIIGRGGEQISRIQAESGCKIQIASESSGIPERPCVLTGTPESIEQAKRLLGQIVDRCRN

Variants of: B1
Assay: abundance fitness (aPCA) (normalised: wild type 0, dead -1); higher = more abundant; growth selection in yeast, the domain comes from the species named
Settings: Homo sapiens

Variant	abundance fitness
RTVITEEFKVPDKMVGFIIGRGGEQISRIQAESGCKIQIASESSGIPERFCVLTGTPESIEQAKRLLGQIVDRCRN [P50F]	-0.119 ± 0.052
RTVITEEFKVPDKMVGFIIGRGGEQISRIQAESGCKIQIASESSGIPERECVLTGTPESIEQAKRLLGQIVDRCRN [P50E]	-0.01 ± 0.031
RTVITEEFKVPDKMVGFIIGRGGEQISRIQAESGCKIQIASESSGIPERSCVLTGTPESIEQAKRLLGQIVDRCRN [P50S]	-0.046 ± 0.031
RTVITEEFKVPDKMVGFIIGRGGEQISRIQAESGCKIQIASESSGIPERMCVLTGTPESIEQAKRLLGQIVDRCRN [P50M]	-0.04 ± 0.038
RTVITEEFKVPDKMVGFIIGRGGEQISRIQAESGCKIQIASESSGIPERTCVLTGTPESIEQAKRLLGQIVDRCRN [P50T]	-0.053 ± 0.035
RTVITEEFKVPDKMVGFIIGRGGEQISRIQAESGCKIQIASESSGIPERDCVLTGTPESIEQAKRLLGQIVDRCRN [P50D]	-0.079 ± 0.045
RTVITEEFKVPDKMVGFIIGRGGEQISRIQAESGCKIQIASESSGIPERICVLTGTPESIEQAKRLLGQIVDRCRN [P50I]	0.004 ± 0.05
RTVITEEFKVPDKMVGFIIGRGGEQISRIQAESGCKIQIASESSGIPERNCVLTGTPESIEQAKRLLGQIVDRCRN [P50N]	0.01 ± 0.052
RTVITEEFKVPDKMVGFIIGRGGEQISRIQAESGCKIQIASESSGIPERKCVLTGTPESIEQAKRLLGQIVDRCRN [P50K]	-0.029 ± 0.036
RTVITEEFKVPDKMVGFIIGRGGEQISRIQAESGCKIQIASESSGIPNRPCVLTGTPESIEQAKRLLGQIVDRCRN [E48N]	-0.1 ± 0.06
RTVITEEFKVPDKMVGFIIGRGGEQISRIQAESGCKIQIASESSGIPRRPCVLTGTPESIEQAKRLLGQIVDRCRN [E48R]	-0.153 ± 0.029
RTVITEEFKVPDKMVGFIIGRGGEQISRIQAESGCKIQIASESSGIPVRPCVLTGTPESIEQAKRLLGQIVDRCRN [E48V]	-0.127 ± 0.029
RTVITEEFKVPDKMVGFIIGRGGEQISRIQAESGCKIQIASESSGIPSRPCVLTGTPESIEQAKRLLGQIVDRCRN [E48S]	-0.043 ± 0.033
RTVITEEFKVPDKMVGFIIGRGGEQISRIQAESGCKIQIASESSGIPQRPCVLTGTPESIEQAKRLLGQIVDRCRN [E48Q]	-0.108 ± 0.04
RTVITEEFKVPDKMVGFIIGRGGEQISRIQAESGCKIQIASESSGIPTRPCVLTGTPESIEQAKRLLGQIVDRCRN [E48T]	-0.109 ± 0.036
RTVITEEFKVPDKMVGFIIGRGGEQISRIQAESGCKIQIASESSGIPMRPCVLTGTPESIEQAKRLLGQIVDRCRN [E48M]	-0.048 ± 0.038
RTVITEEFKVPDKMVGFIIGRGGEQISRIQAESGCKIQIASESSGIPYRPCVLTGTPESIEQAKRLLGQIVDRCRN [E48Y]	-0.056 ± 0.057
RTVITEEFKVPDKMVGFIIGRGGEQISRIQAESGCKIQIASESSGIPPRPCVLTGTPESIEQAKRLLGQIVDRCRN [E48P]	-0.242 ± 0.042

Variant	abundance fitness
RTVITEEFKVPDKMVGFIIGRGGEQISRIQAESGCKIQIASESSGIPWRPCVLTGTPESIEQAKRLLGQIVDRCRN [E48W]	-0.055 ± 0.032
RTVITEEFKVPDKMVGFIIGRGGEQISRIQAESGCKIQIASESSGIPEAPCVLTGTPESIEQAKRLLGQIVDRCRN [R49A]	-0.173 ± 0.037
RTVITEEFKVPDKMVGFIIGRGGEQISRIQAESGCKIQIASESSGIPETPCVLTGTPESIEQAKRLLGQIVDRCRN [R49T]	-0.044 ± 0.046
RTVITEEFKVPDKMVGFIIGRGGEQISRIQAESGCKIQIASESSGIPEWPCVLTGTPESIEQAKRLLGQIVDRCRN [R49W]	-0.271 ± 0.034
RTVITEEFKVPDKMVGFIIGRGGEQISRIQAESGCKIQIASESSGIPECPCVLTGTPESIEQAKRLLGQIVDRCRN [R49C]	-0.091 ± 0.049
RTVITEEFKVPDKMVGFIIGRGGEQISRIQAESGCKIQIASESSGIPELPCVLTGTPESIEQAKRLLGQIVDRCRN [R49L]	-0.19 ± 0.032
RTVITEEFKVPDKMVGFIIGRGGEQISRIQAESGCKIQIASESSGIPEKPCVLTGTPESIEQAKRLLGQIVDRCRN [R49K]	-0.099 ± 0.047
RTVITEEFKVPDKMVGFIIGRGGEQISRIQAESGCKIQIASESSGIPEDPCVLTGTPESIEQAKRLLGQIVDRCRN [R49D]	-0.251 ± 0.056
RTVITEEFKVPDKMVGFIIGRGGEQISRIQAESGCKIQIASESSGIPEEPCVLTGTPESIEQAKRLLGQIVDRCRN [R49E]	-0.159 ± 0.037
RTVITEEFKVPDKMVGFIIGRGGEQISRIQAESGCKIQIASESSGIPENPCVLTGTPESIEQAKRLLGQIVDRCRN [R49N]	-0.155 ± 0.059
RTVITEEFKVPDKMVGFIIGRGGEQISRIQAESGCKIQIASESSGIPESPCVLTGTPESIEQAKRLLGQIVDRCRN [R49S]	-0.141 ± 0.036
RTVITEEFKVPDKMVGFIIGRGGEQISRIQAESGCKIQIASESSGIPEMPCVLTGTPESIEQAKRLLGQIVDRCRN [R49M]	-0.169 ± 0.039
RTVITEEFKVPDKMVGFIIGRGGEQISRIQAESGCKIQIASESSGIPEPPCVLTGTPESIEQAKRLLGQIVDRCRN [R49P]	-0.182 ± 0.048
RTVITEEFKVPDKMVGFIIGRGGEQISRIQAESGCKIQIASESSGIPEVPCVLTGTPESIEQAKRLLGQIVDRCRN [R49V]	-0.052 ± 0.03
RTVITEEFKVPDKMVGFIIGRGGEQISRIQAESGCKIQIASESSGIPEQPCVLTGTPESIEQAKRLLGQIVDRCRN [R49Q]	-0.081 ± 0.041
RTVITEEFKVPDKMVGFIIGRGGEQISRIQAESGCKIQIASESSGIPEIPCVLTGTPESIEQAKRLLGQIVDRCRN [R49I]	-0.141 ± 0.07
RTVITEEFKVPDKMVGFIIGRGGEQISRIQAESGCKIQIASESSGIPEGPCVLTGTPESIEQAKRLLGQIVDRCRN [R49G]	-0.129 ± 0.026
RTVITEEFKVPDKMVGFIIGRGGEQISRIQAESGCKIQIASESSGIPEFPCVLTGTPESIEQAKRLLGQIVDRCRN [R49F]	-0.195 ± 0.058
